Experimental data: publication PMC9884259 (The Journal of Membrane Biology, 2022)

B1: Streptolysin O (SLO), wildtype, residues L78-K571, His-tagged (natural protein)
chain: LAPKEMPLESAEKEEKKSEDKKKSEEDHTEEINDKIYSLNYNELEVLAKNGETIENFVPKEGVKKADKFIVIERKKKNINTTPVDISIIDSVTDRTYPAALQLANKGFTENKPDAVVTKRNPQKIHIDLPGMGDKATVEVNDPTYANVSTAIDNLVNQWHDNYSGGNTLPARTQYTESMVYSKSQIEAALNVNSKILDGTLGIDFKSISKGEKKVMIAAYKQIFYTVSANLPNNPADVFDKSVTFKELQRKGVSNEAPPLFVSNVAYGRTVFVKLETSSKSNDVEAAFSAALKGTDVKTNGKYSDILENSSFTAVVLGGDAAEHNKVVTKDFDVIRNVIKDNATFSRKNPAYPISYTSVFLKNNKIAGVNNRTEYVETTSTEYTSGKINLSHQGAYVAQYEILWDEINYDDKGKEVITKRRWDNNWYSKTSPFSTVIPLGANSRNIRIMARECTGLAWEWWRKVIDERDVKLSKEINVNISGSTLSPYGSITYK

What was measured:
high-speed AFM = target: the molecule itself; assay: high-speed AFM
[1] = target: B1; assay: high-speed AFM; details: both partners purified

Binder | binding result (high-speed AFM) | binding result [1]
B1 | binds | –
SLO (C/A)-SS mutant ([change], [change], [change]), residues L78-K571, His-tagged (natural protein) LAPKEMPLESAEKEEKKSEDKKKSEEDHTEEINDKIYSLNYNELEVLAKNCETIENFVPKEGVKKADKFIVIERKKKNINTTPVDISIIDSVTDRTYPAALQLANKGFTENKPDAVVTKRNPQKIHIDLPGMGDKATVEVNDPTYANVSTAIDNLVNQWHDNYSGGNTLPARTQYTESMVYSKCQIEAALNVNSKILDGTLGIDFKSISKGEKKVMIAAYKQIFYTVSANLPNNPADVFDKSVTFKELQRKGVSNEAPPLFVSNVAYGRTVFVKLETSSKSNDVEAAFSAALKGTDVKTNGKYSDILENSSFTAVVLGGDAAEHNKVVTKDFDVIRNVIKDNATFSRKNPAYPISYTSVFLKNNKIAGVNNRTEYVETTSTEYTSGKINLSHQGAYVAQYEILWDEINYDDKGKEVITKRRWDNNWYSKTSPFSTVIPLGANSRNIRIMAREATGLAWEWWRKVIDERDVKLSKEINVNISGSTLSPYGSITYK | binds | binds
